In the supplement of paper PMC11136658:

Tested on: peptide library, one residue held at a place counted from the Y acceptor
Test: relative phosphorylation of the sub-library (ratio to the mean residue at this position); higher = residue favoured
In short: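 Each value expresses phosphorylation relative to the mean randomized residue. Purified recombinant kinases acted for 90 min in 384-well plates on biotinylated Tyr-centred peptide library mixtures, with one residue fixed at one position from −5 to +5, in the presence of 50 μM ATP with γ-32P-ATP. Signals were read by phosphorimaging after capture on streptavidin membranes, then normalized per position to the sum of the 18 randomized residues (16 in the Ser/Thr-free library) and multiplied by that number.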

BMX, construct: Full length, human, sequence (P51813 whole entry, looked up): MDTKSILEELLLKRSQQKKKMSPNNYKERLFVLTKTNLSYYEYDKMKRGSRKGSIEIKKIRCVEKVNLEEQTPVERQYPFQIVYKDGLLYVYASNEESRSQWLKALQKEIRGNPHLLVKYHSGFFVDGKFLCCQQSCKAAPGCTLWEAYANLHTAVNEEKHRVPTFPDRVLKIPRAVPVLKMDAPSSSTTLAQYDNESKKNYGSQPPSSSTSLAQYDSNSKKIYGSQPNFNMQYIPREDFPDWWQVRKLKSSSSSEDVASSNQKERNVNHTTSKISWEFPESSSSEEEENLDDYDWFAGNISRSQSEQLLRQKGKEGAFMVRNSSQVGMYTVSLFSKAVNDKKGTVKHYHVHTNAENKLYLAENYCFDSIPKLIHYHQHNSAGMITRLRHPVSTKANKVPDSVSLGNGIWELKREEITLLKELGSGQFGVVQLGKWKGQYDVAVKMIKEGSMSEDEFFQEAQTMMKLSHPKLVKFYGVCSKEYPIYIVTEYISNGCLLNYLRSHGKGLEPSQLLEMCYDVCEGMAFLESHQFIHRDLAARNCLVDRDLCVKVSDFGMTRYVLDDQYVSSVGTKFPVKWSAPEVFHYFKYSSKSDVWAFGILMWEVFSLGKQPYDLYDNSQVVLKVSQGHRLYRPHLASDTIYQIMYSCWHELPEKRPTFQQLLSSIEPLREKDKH
BLK, construct: Full length, human, sequence (P51451 whole entry, looked up): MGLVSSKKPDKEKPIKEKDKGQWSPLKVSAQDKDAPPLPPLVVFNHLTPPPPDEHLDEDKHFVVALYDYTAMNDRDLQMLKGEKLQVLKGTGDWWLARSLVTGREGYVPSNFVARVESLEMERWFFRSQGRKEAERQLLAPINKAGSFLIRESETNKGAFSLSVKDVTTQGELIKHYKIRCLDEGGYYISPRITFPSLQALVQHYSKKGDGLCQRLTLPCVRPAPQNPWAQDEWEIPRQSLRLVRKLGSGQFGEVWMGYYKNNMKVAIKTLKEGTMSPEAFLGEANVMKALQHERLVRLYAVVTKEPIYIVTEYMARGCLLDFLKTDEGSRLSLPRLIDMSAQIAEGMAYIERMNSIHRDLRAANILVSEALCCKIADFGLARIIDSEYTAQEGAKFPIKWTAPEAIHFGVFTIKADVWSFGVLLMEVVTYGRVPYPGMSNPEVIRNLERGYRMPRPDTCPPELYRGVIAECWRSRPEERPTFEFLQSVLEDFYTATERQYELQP
BMPR2, construct: aa172-end, human, sequence (Q13873 172-1038, looked up): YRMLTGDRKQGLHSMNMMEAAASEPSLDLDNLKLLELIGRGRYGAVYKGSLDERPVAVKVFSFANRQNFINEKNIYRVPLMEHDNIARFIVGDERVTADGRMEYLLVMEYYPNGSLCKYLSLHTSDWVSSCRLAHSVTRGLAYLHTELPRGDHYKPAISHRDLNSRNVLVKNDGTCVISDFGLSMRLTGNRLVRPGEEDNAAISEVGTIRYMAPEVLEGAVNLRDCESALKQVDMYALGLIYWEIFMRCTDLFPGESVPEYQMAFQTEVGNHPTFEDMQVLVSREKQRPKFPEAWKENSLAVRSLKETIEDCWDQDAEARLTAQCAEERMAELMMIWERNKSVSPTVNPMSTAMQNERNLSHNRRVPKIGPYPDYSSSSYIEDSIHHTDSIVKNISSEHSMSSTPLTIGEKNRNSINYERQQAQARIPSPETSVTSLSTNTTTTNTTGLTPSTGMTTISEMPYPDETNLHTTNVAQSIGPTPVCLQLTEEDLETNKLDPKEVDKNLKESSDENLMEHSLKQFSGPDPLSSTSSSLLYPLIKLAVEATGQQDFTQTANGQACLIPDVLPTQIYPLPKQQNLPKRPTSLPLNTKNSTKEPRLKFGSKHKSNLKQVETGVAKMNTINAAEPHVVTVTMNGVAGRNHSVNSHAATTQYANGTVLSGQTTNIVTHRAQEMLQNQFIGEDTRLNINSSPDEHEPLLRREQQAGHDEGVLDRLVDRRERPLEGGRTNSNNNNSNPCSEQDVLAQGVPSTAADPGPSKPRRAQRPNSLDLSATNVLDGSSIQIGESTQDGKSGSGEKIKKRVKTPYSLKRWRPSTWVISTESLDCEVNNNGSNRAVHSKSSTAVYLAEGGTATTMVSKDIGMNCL
AXL, construct: aa473-end, human, sequence (P30530 473-894, looked up): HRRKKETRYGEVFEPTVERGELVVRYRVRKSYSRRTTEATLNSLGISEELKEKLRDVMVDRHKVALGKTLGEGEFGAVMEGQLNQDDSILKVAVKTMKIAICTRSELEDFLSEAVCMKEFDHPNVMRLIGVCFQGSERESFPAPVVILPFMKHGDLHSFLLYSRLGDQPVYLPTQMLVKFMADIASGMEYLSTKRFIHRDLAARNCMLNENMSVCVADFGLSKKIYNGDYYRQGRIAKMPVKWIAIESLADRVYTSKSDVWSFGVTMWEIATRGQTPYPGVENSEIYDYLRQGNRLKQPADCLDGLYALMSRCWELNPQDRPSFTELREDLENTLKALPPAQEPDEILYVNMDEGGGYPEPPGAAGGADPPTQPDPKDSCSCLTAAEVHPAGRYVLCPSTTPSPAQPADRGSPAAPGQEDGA

AXL, construct: aa473-end, human (from UniProt P30530)
relative phosphorylation
Conditions	at +1	at +2	at +3	at +4	at +5	at -1	at -2	at -3	at -4	at -5
A fixed	1.58	0.759	0.52	0.973	0.953	0.707	0.976	0.87	1.16	0.962
D fixed	0.68	0.48	0.401	0.874	1.06	0.354	0.754	0.897	0.884	0.822
E fixed	1.19	0.946	0.327	1.07	1.01	0.34	0.896	1.15	1.1	0.813
F fixed	1.12	1.43	1.61	1.03	0.877	1.51	0.6	0.911	0.948	0.965
G fixed	0.671	0.33	0.527	1.41	1.81	0.306	1.39	1.25	1.36	1.36
H fixed	1.1	0.976	1.05	1.33	0.794	1.77	1.1	1	0.905	1.08
I fixed	1.42	1.31	2.32	0.763	0.446	2.51	0.913	0.722	0.915	0.969
K fixed	0.356	0.723	0.289	0.849	0.911	0.718	1.21	1.09	1.15	1.11
L fixed	0.971	1.33	2.33	0.84	0.548	2.03	0.762	0.792	0.986	0.913
M fixed	1.09	1.13	1.55	1.02	0.69	1.05	0.639	0.84	0.891	0.977
N fixed	0.352	0.811	0.456	0.806	1.25	1.1	1.16	1.29	0.905	1.02
P fixed	0.183	0.751	0.892	1.29	2.23	0.518	1.1	1.25	1.09	1.18
Q fixed	1.02	0.801	0.818	1.18	1.14	0.595	1.23	0.965	1.08	1.11
R fixed	0.457	0.845	0.425	0.928	0.64	0.549	1.14	1.12	1.19	1.26
S fixed	1.2	0.804	0.633	0.894	1.18	0.649	1.44	1.23	0.873	0.843
T fixed	1.29	0.941	0.79	0.849	1.13	0.862	1.11	1.04	0.826	0.841
V fixed	1.72	1.2	1.45	0.744	0.6	1.27	1.05	0.785	0.862	0.827
W fixed	1.6	2.42	1.61	1.16	0.723	1.15	0.539	0.791	0.88	0.963
pThr fixed	1.2	0.933	0.308	0.609	0.743	0.426	0.736	0.827	0.7	0.706
pTyr fixed	1.74	2.15	0.402	0.659	0.818	1.08	0.692	1.06	0.883	0.7

BLK, construct: Full length, human (from UniProt P51451)
relative phosphorylation
Conditions	at +1	at +2	at +3	at +4	at +5	at -1	at -2	at -3	at -4	at -5
A fixed	2.14	1.24	0.602	0.865	0.935	0.611	1.17	0.881	1.14	1.08
D fixed	1.33	0.554	0.236	0.56	0.668	0.87	1.64	1.7	1.68	1.46
E fixed	2	1.17	0.228	0.643	0.62	1.58	2.03	2.08	1.68	1.35
F fixed	0.463	0.799	1.9	1.14	1.02	0.648	0.466	0.996	0.777	0.846
G fixed	3.16	0.79	0.772	1.28	1.12	0.46	1.41	1.09	1.34	1.27
H fixed	0.603	0.666	0.822	1.2	1.08	0.592	0.778	1.05	0.879	0.978
I fixed	0.558	0.865	2.22	0.721	0.713	3.23	0.629	0.607	0.833	0.764
K fixed	0.198	0.856	0.598	1.35	1.39	0.303	0.597	0.47	0.732	0.941
L fixed	0.458	0.767	2.47	1.13	0.834	1.8	0.682	0.73	0.805	0.721
M fixed	1.11	0.83	0.927	1.16	0.938	0.995	0.605	0.853	0.913	0.816
N fixed	0.538	0.874	0.448	0.796	0.93	0.421	1.3	1.37	0.96	1.09
P fixed	0.222	1.29	0.565	0.834	1.18	0.706	1.35	0.917	1.2	1.23
Q fixed	1.16	0.957	0.414	0.998	0.87	0.589	1.15	0.926	1.09	1.12
R fixed	0.335	1.26	1.3	1.71	1.78	0.324	0.707	0.619	0.81	0.97
S fixed	1.15	1.49	0.608	0.921	1.06	0.454	1.16	1.09	0.833	0.968
T fixed	0.904	1.78	0.724	0.902	1.09	1.54	1.07	1.05	0.82	0.859
V fixed	0.71	1.18	1.29	0.759	0.786	2.31	0.762	0.62	0.737	0.753
W fixed	0.956	0.629	1.88	1.04	0.981	0.564	0.478	0.951	0.784	0.793
pThr fixed	0.782	1.66	0.255	0.373	0.472	2.81	1.61	1.16	1.21	1.35
pTyr fixed	1.22	1.85	0.494	0.629	0.643	0.876	1.17	1.55	1.41	1.4

BMPR2, construct: aa172-end, human (from UniProt Q13873)
relative phosphorylation
Conditions	at +1	at +2	at +3	at +4	at +5	at -1	at -2	at -3	at -4	at -5
A fixed	0.886	0.936	0.914	0.977	0.907	0.88	0.948	0.948	0.967	0.964
D fixed	0.835	1.34	1.18	1.05	1.04	2.25	1.25	1.33	1.31	1.29
E fixed	0.785	1.44	1.13	1.07	1.04	1.44	1.08	1.27	1.16	1.1
F fixed	0.959	0.852	0.953	0.96	0.947	0.755	1.09	0.989	1.13	1.06
G fixed	0.927	0.923	1.03	1.04	1.07	1.46	1.03	1.02	0.965	0.987
H fixed	1.03	0.986	0.995	1.08	1.06	0.796	1.09	1.1	1.14	1.05
I fixed	1.02	0.969	1.02	1	0.961	0.767	0.754	0.855	0.861	0.928
K fixed	1.11	0.898	0.966	1.04	1.06	0.708	1.06	0.872	0.875	0.942
L fixed	1.09	0.864	0.827	0.834	0.842	0.832	1.05	0.852	0.896	0.863
M fixed	1.06	0.913	0.906	0.917	0.874	0.841	0.97	0.881	0.901	0.892
N fixed	0.897	1.08	1	1	0.99	1.08	1	1.1	0.933	1.05
P fixed	1.23	0.981	1.05	1.07	1.15	0.724	0.825	0.86	0.905	0.928
Q fixed	0.917	0.994	0.979	0.957	0.972	0.92	1.01	1.01	0.987	1.03
R fixed	1.2	0.99	1.14	1.1	1.23	0.92	1.05	1.04	0.92	0.975
V fixed	1.26	1.03	1.04	0.972	0.979	0.781	0.732	0.918	0.911	0.906
W fixed	0.808	0.789	0.875	0.919	0.88	0.843	1.06	0.963	1.14	1.03
pThr fixed	2.07	1.7	1.39	1.4	1.12	3.29	1.35	1.22	1.22	1.27
pTyr fixed	1.48	2.01	1.17	1.27	1.05	2.54	1.64	2.3	2	1.47

BMX, construct: Full length, human (from UniProt P51813)
relative phosphorylation
Conditions	at +1	at +2	at +3	at +4	at +5	at -1	at -2	at -3	at -4	at -5
A fixed	1.73	1.01	0.847	0.846	0.939	0.521	1.05	0.992	1.04	1.05
D fixed	0.82	0.761	0.324	0.746	0.903	0.726	1.43	1.48	1.31	1.11
E fixed	1.85	1.27	0.292	0.959	0.958	0.812	1.5	1.56	1.43	1.03
F fixed	0.504	1.02	1.53	0.876	1.11	1.13	0.558	1.12	0.855	0.993
G fixed	0.807	0.605	0.799	1.11	1.08	0.293	1.18	0.958	1.33	1.13
H fixed	0.451	0.611	2.04	1.1	1.01	0.643	0.912	0.864	0.866	0.921
I fixed	1.61	1.08	1.25	0.722	0.764	3.28	0.744	0.636	0.845	0.855
K fixed	0.251	0.768	0.639	0.881	0.914	0.281	0.792	0.672	0.898	1.03
L fixed	0.714	1	1.1	0.849	0.762	3.33	0.799	0.704	0.884	1.02
M fixed	1.28	0.979	1.15	1.06	1.04	1.24	0.71	0.805	0.958	0.938
N fixed	0.44	0.919	0.558	0.784	0.99	0.567	1.27	1.39	1.03	1.15
P fixed	0.166	0.873	0.569	1.12	1.3	0.5	1.38	1.13	1.27	1.19
Q fixed	1.26	1.02	1.09	1.19	0.953	0.652	1.3	1.08	1.26	1.1
R fixed	0.332	0.919	1.47	1.27	1.2	0.298	0.81	0.823	0.987	1.06
S fixed	1.38	1.27	0.866	0.935	1.1	0.475	1.18	1.08	0.797	0.923
T fixed	1.39	1.35	0.704	0.936	1.02	1.1	1.03	0.909	0.724	0.787
V fixed	1.74	1.42	1.24	0.898	0.788	1.64	0.866	0.792	0.738	0.867
W fixed	1.28	1.11	1.53	1.73	1.16	0.501	0.493	0.987	0.777	0.868
pThr fixed	2.3	2.57	0.296	0.734	0.603	2.21	1.19	1.25	1.09	0.986
pTyr fixed	1.29	2.49	0.504	0.852	0.858	9.03	1.27	1.46	1.22	1.05
